Measured values taken from patent US20260070984A1 (Boehringer Ingelheim, published 2026).

B1: Chimeric 703D10 (antibody, V domains shown)
VH: QVQLQQPGAELVKPGASVKLSCKASGYSFTSYWMHWVRQRPGQGLEWIGDIDPSNSYAYHSQKFKGKATLTVDKSSSTAYMQLSSLTSEDSAVYFCARADGTSHWYFDVWGAGTAVTVSS
VL: QIVLTQSPGIMSASPGEKVTITCSANSSVSFMHWFQQKPGTSPKIWIYSTSSLASGVPARFSGSGSGTSYSLTISRMEAEDAATYYCQQRSSYPLTFGAGTKLELK
notes: Mouse variable domains in human IgG4Pro (Ser228Pro) backbone; also called 703D10 in human IgG4Pro backbone
B2: Chimeric 718C2 (antibody, V domains shown)
VH: EVQLQQSGPELVKPGASVKMSCKASGYTFTSYVMHWVRQKPGQGLEWIGYIDPDNDGTKYNEKFKGKATLTSDKSSSTAYMELSSLTSEDSAVYYCAREAYYGGLYGMDYWGQGSSVTVSS
VL: DIVMSQSPSSLTVSVGEKVTMSCKSSQSLLYSSNQKIYLAWFQQKPGQSPKLLIYWASTRESGVPDRFTGSGSGTDFTLTISSVKAEDLAVYYCQQYYNSPLTFGAGTKLELK
notes: Mouse variable domains in human IgG4Pro (Ser228Pro) backbone; also called 718C2 in human IgG4Pro backbone
B3: 708E4 (mouse IgG1 backbone) (antibody, V domains shown)
VH: QIQLQQSGPELVKPGASVKISCKASGYTFTDYYLNWVKQRPGHGLEWIGWIYPGSSDTKHNENFKGKATLTVDTYSSTAYMQLGSLTSEDSAVYFCTRYSNFFFDYWGQGTTLTVSS
VL: DIVMTQSQKFLSTSVGDRVRVTCKASQNVVTYVAWYQQKPGQSPKSLIYSASYRYSGVPDRFTGSGSGTYFTLTINNVQFEDLAEYFCQQYHSYPYTFGGGTKLEIK
B4: 703D10 (mouse IgG1 backbone) (antibody, V domains shown)
VH: B1 VH
VL: B1 VL
B5: 306E6 (mouse IgG1 backbone) (antibody, V domains shown)
VH: EVQLQQSGPELVKPGSSVKISCKASGYTFTDYYVNWVKQSHGKSLEWFGDIHPNSGDTTYNQKFKDKATLTVDKSSSTAYMELRSLTSEDSAVYYCARRRYDYDGFAYWGQGTLVTVSA
VL: EIVMTQAAFSNPVTLGTSASISCRSSKSLLHRNGITYLYWYLQKPGQSPQLLIYEMSNLASGVPDRFSSSGSGTDFTLRISRVEAEDVGVYYCGQNLEFPLTFGAGTKLELK
B6: 718C2 (mouse IgG1 backbone) (antibody, V domains shown)
VH: B2 VH
VL: B2 VL

Molecular target: T1, recombinant human PD-1 (human, UniProt Q15116 25-167, limits assumed)
T1 construct: Soluble recombinant protein used in SPR; also called PDCD1; purified recombinant human PD-1
Assay: SPR, ProteOn XPR36
Method: Kinetics and binding affinities were measured using the ProteOn™ XPR36 (Biorad, Hercules, CA) surface plasmon resonance optical biosensor using material generated from transient transfection following single column purification.

T1 sequence (Q15116 25-167 limits assumed): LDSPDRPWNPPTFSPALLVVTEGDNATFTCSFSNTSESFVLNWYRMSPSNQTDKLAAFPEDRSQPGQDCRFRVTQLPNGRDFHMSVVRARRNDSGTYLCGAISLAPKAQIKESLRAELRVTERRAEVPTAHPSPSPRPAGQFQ

| Binder | Kd [nM] | koff [s⁻¹] | kon [M⁻¹ s⁻¹] |
| --- | --- | --- | --- |
| B1 | 9.49 | 0.000329 | 34600 |
| B2 | 3.98 | 0.000113 | 28400 |

Molecular target: T2, human PD-1 expressed on cells (human, UniProt Q15116 25-288)
Assay: cell-based or functional assay

T2 sequence (Q15116 25-288): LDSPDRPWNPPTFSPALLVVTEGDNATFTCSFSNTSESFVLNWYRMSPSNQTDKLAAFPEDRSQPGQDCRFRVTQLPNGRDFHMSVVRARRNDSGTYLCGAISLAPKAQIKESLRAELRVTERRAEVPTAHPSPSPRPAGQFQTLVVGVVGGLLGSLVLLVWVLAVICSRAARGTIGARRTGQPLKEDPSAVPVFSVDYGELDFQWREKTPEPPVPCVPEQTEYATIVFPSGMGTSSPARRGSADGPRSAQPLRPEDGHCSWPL

| Binder | Emax Values (%), inhibition of NFAT activity [%] | IC50 Values (nM), inhibition of NFAT activity [nM] |
| --- | --- | --- |
| B3 | 48.7 | 0.17 |
| B4 | 47.4 | 10.9 |
| B1 | 41.9 | 0.39 |
| B5 | 45.5 | 1.14 |
| B6 | 50.8 | 0.82 |
| B2 | 44.4 | 0.38 |

Molecular target: T2, human PD-1 expressed on cells
Assay: cell-based or functional assay
Remark: another data set of the same source

| Binder | Emax Values (%), Average, inhibition of IFNγ [%] | IC50 Values (pM), Average, inhibition of IFNγ [pM] |
| --- | --- | --- |
| B3 | 73.5 | 915 |
| B4 | 65 | 3200 |
| B5 | 19.5 | 22 |
| B6 | 64.5 | 995 |
